# Assay results as given in patent publication US6756357 (ISTITUTO DI RICHERCHE DI BIOLOGIA MOLECOLARE DI ANGELETTI S …, dated 2004).
# T1: cellular LIF receptor on HepG2 cells (human, UniProt P42702 45-1097)
# T1 sequence (looked up): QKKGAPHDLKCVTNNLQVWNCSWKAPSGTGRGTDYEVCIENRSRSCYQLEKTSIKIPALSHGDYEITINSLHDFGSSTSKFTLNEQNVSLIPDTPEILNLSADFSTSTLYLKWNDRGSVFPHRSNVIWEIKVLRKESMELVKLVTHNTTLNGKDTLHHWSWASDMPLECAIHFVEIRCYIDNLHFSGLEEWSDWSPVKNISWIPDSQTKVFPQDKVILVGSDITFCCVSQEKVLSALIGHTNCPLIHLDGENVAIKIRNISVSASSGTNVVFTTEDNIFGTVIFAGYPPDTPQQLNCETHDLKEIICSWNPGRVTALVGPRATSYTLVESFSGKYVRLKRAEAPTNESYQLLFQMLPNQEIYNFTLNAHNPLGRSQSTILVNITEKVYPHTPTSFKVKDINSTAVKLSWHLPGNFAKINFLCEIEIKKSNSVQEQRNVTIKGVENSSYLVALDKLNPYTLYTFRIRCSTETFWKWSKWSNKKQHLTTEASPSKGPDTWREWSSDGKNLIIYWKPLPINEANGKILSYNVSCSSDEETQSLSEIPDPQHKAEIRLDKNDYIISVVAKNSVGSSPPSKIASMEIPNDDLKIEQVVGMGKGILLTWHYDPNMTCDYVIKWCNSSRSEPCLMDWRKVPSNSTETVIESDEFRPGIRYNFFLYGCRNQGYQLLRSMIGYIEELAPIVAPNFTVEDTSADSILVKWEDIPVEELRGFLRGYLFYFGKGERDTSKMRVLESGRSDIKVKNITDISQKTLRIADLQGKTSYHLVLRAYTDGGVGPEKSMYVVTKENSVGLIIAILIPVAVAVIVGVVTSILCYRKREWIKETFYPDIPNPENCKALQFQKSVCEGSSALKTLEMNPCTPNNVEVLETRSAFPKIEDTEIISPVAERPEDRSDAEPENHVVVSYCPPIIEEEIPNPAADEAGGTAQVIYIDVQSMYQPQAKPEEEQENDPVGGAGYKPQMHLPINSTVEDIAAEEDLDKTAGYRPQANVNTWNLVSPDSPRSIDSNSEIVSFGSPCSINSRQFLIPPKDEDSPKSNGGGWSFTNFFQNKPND
# T2: soluble LIFR (LIF receptor) (UniProt P42702 45-833, limits assumed, 35S-labelled in the test of FIG. 1B)
# T2 construct: also called LIFR marked with 35S
# T2 sequence (looked up): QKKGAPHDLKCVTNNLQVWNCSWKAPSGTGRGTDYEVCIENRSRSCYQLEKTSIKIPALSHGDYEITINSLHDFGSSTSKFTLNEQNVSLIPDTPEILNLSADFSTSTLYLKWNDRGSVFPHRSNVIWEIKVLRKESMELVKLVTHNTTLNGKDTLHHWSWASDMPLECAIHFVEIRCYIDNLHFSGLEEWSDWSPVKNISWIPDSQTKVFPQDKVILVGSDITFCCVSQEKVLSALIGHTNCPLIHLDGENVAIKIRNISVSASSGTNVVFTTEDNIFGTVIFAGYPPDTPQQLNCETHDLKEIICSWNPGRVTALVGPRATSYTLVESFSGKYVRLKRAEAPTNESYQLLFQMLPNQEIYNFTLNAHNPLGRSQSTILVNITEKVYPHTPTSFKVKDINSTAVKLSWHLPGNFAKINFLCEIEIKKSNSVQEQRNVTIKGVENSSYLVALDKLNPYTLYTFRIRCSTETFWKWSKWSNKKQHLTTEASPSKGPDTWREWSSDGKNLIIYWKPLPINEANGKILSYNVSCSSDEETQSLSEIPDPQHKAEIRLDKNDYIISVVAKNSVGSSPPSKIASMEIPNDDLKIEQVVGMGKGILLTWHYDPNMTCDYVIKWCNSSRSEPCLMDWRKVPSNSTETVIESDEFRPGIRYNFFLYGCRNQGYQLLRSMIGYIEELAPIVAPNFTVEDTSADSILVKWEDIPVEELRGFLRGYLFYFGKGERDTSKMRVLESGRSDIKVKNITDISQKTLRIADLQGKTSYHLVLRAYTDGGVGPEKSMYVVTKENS
# T3: CNTFRα-myc (soluble extracellular domain of the CNTFRα receptor) (UniProt P26992 23-342)
# T3 construct: extracellular domain; Captured on plates or protein A-Sepharose through the anti-myc antibody 9E10; also called CNTF receptor α; soluble CNTFRα receptor
# T3 sequence (looked up): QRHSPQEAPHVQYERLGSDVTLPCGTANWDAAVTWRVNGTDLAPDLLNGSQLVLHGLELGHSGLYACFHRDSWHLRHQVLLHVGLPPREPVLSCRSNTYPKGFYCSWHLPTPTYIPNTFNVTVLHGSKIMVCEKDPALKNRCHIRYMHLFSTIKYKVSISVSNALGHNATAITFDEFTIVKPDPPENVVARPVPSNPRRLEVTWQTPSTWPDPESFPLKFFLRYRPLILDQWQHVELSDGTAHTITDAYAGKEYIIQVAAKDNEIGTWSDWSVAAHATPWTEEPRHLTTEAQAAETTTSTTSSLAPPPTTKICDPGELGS
# T4: membrane-bound CNTFRα receptor on IMR-32 cells (human, UniProt P26992 23-342)
# T4 sequence (looked up): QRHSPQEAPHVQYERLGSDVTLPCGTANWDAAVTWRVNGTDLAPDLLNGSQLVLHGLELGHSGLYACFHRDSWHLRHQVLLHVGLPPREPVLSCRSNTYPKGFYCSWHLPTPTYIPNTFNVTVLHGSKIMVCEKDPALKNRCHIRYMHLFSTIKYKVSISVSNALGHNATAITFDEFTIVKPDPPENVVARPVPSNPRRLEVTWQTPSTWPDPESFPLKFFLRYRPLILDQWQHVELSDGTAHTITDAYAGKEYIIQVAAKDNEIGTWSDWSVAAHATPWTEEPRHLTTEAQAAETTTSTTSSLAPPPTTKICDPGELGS
# Experiments:
# [1] = target: T1, cellular LIF receptor on HepG2 cells; experiment: cell-based or functional assay
# [2] = target: T2, soluble LIFR (LIF receptor); experiment: immunoprecipitation of 35S-LIFR with immobilised soluble CNTFRα and variant, SDS-PAGE (FIG. 1B)
# Description: It is known from the literature that the molecules gp130 and LIFR are able to bind independently to the CNTF/CNTFRα complex (11). To assess the functional importance of D1 motif residues the ability of CNTF variants to assemble receptor complexes with the different subunits was assayed. Bonding of the cytokine/CNTFRα complex to gp130 or LIFR marked with ^35S was determined using immunoprecipitation tests as described in the literature (11). The soluble CNTFRα receptor was immobilised on A-Sepharose protein using the monoclonal antibody 9E10 anti-myc and incubated with soluble gp130 or LIFR marked with sulphur ^35S, in the absence or in the presence of different amounts of CNTF variants (1 or 0.1 mg). After washing, the bound material was eluted and subjected to SDS-PAGE.
# [3] = target: T3, CNTFRα-myc (soluble extracellular …); experiment: solid-phase competition with biotinylated CNTF or biotinylated MUT-DH for immobilised CNTFRα-myc, soluble gp130 present
# Description: The ability of CNTF variants to compete with biotinylated CNTF ([…]) for binding to the extracellular domain of the CNTFRα receptor was determined in a solid-phase binding assay, in the presence of soluble gp130, as described in preceding publications (19). "Microtiter" 96-well polystyrene culture plates were covered with […] of 50 mM sodium carbonate pH 9.5, containing […] of the monoclonal antibody 9E10, which is directed against a c-myc epitope, and the plates are then preserved at 4° C. for one night. The wells were then washed out five times with TBS (50 mM Tris-HCl, pH 7.5, 150 mM NaCl) containing 0.05% Tween and held for 90 minutes at room temperature in TBSMT (50 mM Tris-HCl, 150 mM NaCl, 5% (w/v) lyophilised non-fat milk). All subsequent incubations were carried out at room temperature on a mixer at a speed of 700 rpm, after each incubation period the wells were washed with TBS containing 0.05% Tween (five times each time). The following incubation periods were performed: (1) 2 hours with […] TBSMT containing […] of CNTFRα-myc; (2) 1 hour with […] of TBSMT containing 200 ng of gp130-flag, 5 nM biotinylated CNTF, and the various competitors and (3) 45 minutes with […] of TBS, 5% (w/v) of bovine serum albumin, 0.05% (v/v) Tween 20 containing 0.8 mg/ml avidin conjugated with alkaline phosphatase.
# The alkaline phosphatase activity was determined at 37° C. using 1 mg/ml p-nitrophenyl phosphate in 1 M of diethanolamine-HCl, pH 9.8, and absorbancy at 405 nm was measured after 40–60 minutes using a suitable reader. In some experiments the biotinylated MUT-DH variant molecule (0.5 nM) as used as a ligand.
# [4] = target: T4, membrane-bound CNTFRα receptor on …; experiment: cell-based or functional assay
Binder,"haptoglobin secretion by HepG2 cells, without soluble CNTFRα (FIG. 2A) [1]",binding result [2],Relative Binding ((IC50 of CNTF)/(IC50 of tested protein)) [3] [ratio],inhibition of Chat activity induced by a subsaturating dose of CNTF in IMR-32 cells (FIG. 4B) [4]
"Lys155Ala/MUT-DH (ligand, human, UniProt P26441 1-200, looked up, also called FADH-CNTF; FA/DH) MAFTEHSPLTPHRRDLCSRSIWLARKIRSDLTALTESYVKHQGLNKNINLDSADGMPVASTDQWSELTEAERLQENLQAYRTFHVLLARLLEDQQVHFTPTEGDFHQAIHTLLLQVAAFAYQIEELMILLEYKIPRNEADGMPINVGDGGLFEKALWGLKVLQELDHWTVRSIHDLRFISSHQTGIPARGSHYIANNKKM",~20 % with respect to the maximum value,no binding (tested: 1 or 0.1 mg),42,–
"Phe152Ala/Lys155Ala/MUT-DH (ligand, human, UniProt P26441 1-200, looked up, also called AADH-CNTF; AA/DH) MAFTEHSPLTPHRRDLCSRSIWLARKIRSDLTALTESYVKHQGLNKNINLDSADGMPVASTDQWSELTEAERLQENLQAYRTFHVLLARLLEDQQVHFTPTEGDFHQAIHTLLLQVAAFAYQIEELMILLEYKIPRNEADGMPINVGDGGLAEKALWGLKVLQELDHWTVRSIHDLRFISSHQTGIPARGSHYIANNKKM",–,no binding (tested: 1 or 0.1 mg),51,70 fold excess over CNTF for 50% inhibition
"Lys155Ala/CNTF (ligand, human, UniProt P26441 1-200, looked up, also called FA-CNTF) MAFTEHSPLTPHRRDLCSRSIWLARKIRSDLTALTESYVKHQGLNKNINLDSADGMPVASTDQWSELTEAERLQENLQAYRTFHVLLARLLEDQQVHFTPTEGDFHQAIHTLLLQVAAFAYQIEELMILLEYKIPRNEADGMPINVGDGGLFEKALWGLKVLQELSQWTVRSIHDLRFISSHQTGIPARGSHYIANNKKM",~20 % with respect to the maximum value,–,1,–
"MUT-DH (Ser166Asp/Gln167His/CNTF) (ligand, human, UniProt P26441 1-200, looked up, also called DH-CNTF; S166D/Q167H/CNTF) MAFTEHSPLTPHRRDLCSRSIWLARKIRSDLTALTESYVKHQGLNKNINLDSADGMPVASTDQWSELTEAERLQENLQAYRTFHVLLARLLEDQQVHFTPTEGDFHQAIHTLLLQVAAFAYQIEELMILLEYKIPRNEADGMPINVGDGGLFEKKLWGLKVLQELDHWTVRSIHDLRFISSHQTGIPARGSHYIANNKKM",–,–,41,–

# Further lines, results first:
"haptoglobin secretion by HepG2 cells, without soluble CNTFRα (FIG. 2A) [1]",binding result [2],Relative Binding ((IC50 of CNTF)/(IC50 of tested protein)) [3] [ratio],inhibition of Chat activity induced by a subsaturating dose of CNTF in IMR-32 cells (FIG. 4B) [4],Binder
~20 % with respect to the maximum value,no binding (tested: 1 or 0.1 mg),32,–,"Phe152Ala/MUT-DH (ligand, human, UniProt P26441 1-200, looked up, also called AKDH-CNTF; AK/DH) MAFTEHSPLTPHRRDLCSRSIWLARKIRSDLTALTESYVKHQGLNKNINLDSADGMPVASTDQWSELTEAERLQENLQAYRTFHVLLARLLEDQQVHFTPTEGDFHQAIHTLLLQVAAFAYQIEELMILLEYKIPRNEADGMPINVGDGGLAEKKLWGLKVLQELDHWTVRSIHDLRFISSHQTGIPARGSHYIANNKKM"
–,–,1,–,"human ciliary neurotrophic factor (hCNTF) (ligand, UniProt P26441 1-200, looked up, also called wild-type CNTF; wt) MAFTEHSPLTPHRRDLCSRSIWLARKIRSDLTALTESYVKHQGLNKNINLDSADGMPVASTDQWSELTEAERLQENLQAYRTFHVLLARLLEDQQVHFTPTEGDFHQAIHTLLLQVAAFAYQIEELMILLEYKIPRNEADGMPINVGDGGLFEKKLWGLKVLQELSQWTVRSIHDLRFISSHQTGIPARGSHYIANNKKM"
–,–,0.9,–,"Phe152Ala/Lys155Ala/hCNTF (ligand, human, UniProt P26441 1-200, looked up, also called Phe152Ala/Lys155Ala/CNTF; AA-CNTF) MAFTEHSPLTPHRRDLCSRSIWLARKIRSDLTALTESYVKHQGLNKNINLDSADGMPVASTDQWSELTEAERLQENLQAYRTFHVLLARLLEDQQVHFTPTEGDFHQAIHTLLLQVAAFAYQIEELMILLEYKIPRNEADGMPINVGDGGLAEKALWGLKVLQELSQWTVRSIHDLRFISSHQTGIPARGSHYIANNKKM"
